These results are taken from patent US20240228570A9, “PLATFORM TECHNOLOGY FOR TREATMENT OF INFLAMMATORY, IMMUNOLOGICAL AND/OR AUTOIMMUNOLOGICAL DISEASES” (ellennbe GmbH, priority 2021, published 2024).

The subject of the assay is inflammatory disease, immunological disease and/or autoimmunological disease. Kind of assay: Treatment of patients: condition as stated by patient and physician (pain, fatigue, daily life, duration of effect, relapses). The following applies: Patient 11, ankylosing spondylitis; within half a year the biologics lost their effect. The format is in vivo, human. Here is the method: All patients treated in the following Inventive Examples, Reference Examples and Comparative Examples were selected solely based on their diagnosis without performing a preselection in view of other parameters.
Annotation to the Tables 8A and B and 9 to 10: Patients were usually examined and treated in the same session. The success of the treatment or the effect thereof was then determined in the following session, usually one week later, and the next treatment performed as indicated in the tables.

B1: Cimzia®: biologic, certolizumab pegol (antibody, chains of the INN, looked up, V domains shown)
VH: EVQLVESGGGLVQPGGSLRLSCAASGYVFTDYGMNWVRQAPGKGLEWMGWINTYIGEPIYADSVKGRFTFSLDTSKSTAYLQMNSLRAEDTAVYYCARGYRSYAMDYWGQGTLVTVSS
VL: DIQMTQSPSSLSASVGDRVTITCKASQNVGTNVAWYQQKPGKAPKALIYSASFLYSGVPYRFSGSGSGTDFTLTISSLQPEDFATYYCQQYNIYPLTFGQGTKVEIK
modifications: Fab' PEG (pegol)
Regarding B1, the “effect of earlier treatment with biologics (patient's report)” value is on record as “had little effect from the outset”.
